B1: Occludin (Homo sapiens), Q16625-1 (parent)
chain: MSSRPLESPPPYRPDEFKPNHYAPSNDIYGGEMHVRPMLSQPAYSFYPEDEILHFYKWTSPPGVIRILSMLIIVMCIAIFACVASTLAWDRGYGTSLLGGSVGYPYGGSGFGSYGSGYGYGYGYGYGYGGYTDPRAAKGFMLAMAAFCFIAALVIFVTSVIRSEMSRTRRYYLSVIIVSAILGIMVFIATIVYIMGVNPTAQSSGSLYGSQIYALCNQFYTPAATGLYVDQYLYHYCVVDPQEAIAIVLGFMIIVAFALIIFFAVKTRRKMDRYDKSNILWDKEHIYDEQPPNVEEWVKNVSAGTQDVPSPPSDYVERVDSPMAYSSNGKVNDKRFYPESSYKSTPVPEVVQELPLTSPVDDFRQPRYSSGGNFETPSKRAPAKGRAGRSKRTEQDHYETDYTTGGESCDELEEDWIREYPPITSDQQRQLYKRNFDTGLQEYKSLQSELDEINKELSRLDKELDDYREESEEYMAAADEYNRLKQVKGSADYKSKKNHCKQLKSKLSHIKKMVGDYDRQKT

Variants of: B1
Conditions: with kpcl_human kpcl_human

effect of a mutation on the interaction | Variant
decreasing interaction | T404A
decreasing interaction | T438A
decreasing interaction | T403A
